According to publication PMC12516185:

Target: Zea mays pullulanase1 (ZPU1), from residue 80, GAL4 fusion (maize (Zea mays L.)) (UniProt O81638)

Red Pullulan hydrolysis (ZPU1 activity) in total soluble extracts of yeast strain 830 (ISA1 and ZPU1) compared with strain 808 (ZPU1 alone): 1.7 fold
Substance: maize isoamylase1 (ISA1), mature protein from residue 50, GAL4 fusion (from UniProt O22637 50-789) (enzyme)
